The values that follow come from the nanobody polyreactivity screen of Harvey et al. (2022).

This data set can be described thus: yeast display, Sf9 membrane polyspecificity reagent, FACS + sequencing; frameworks hold sequencing errors. An outline of the steps: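 Genes from sorted yeast were amplified by colony PCR, read by MiSeq 2 × 250 sequencing and filtered on CDR length. These cells carried a synthetic nanobody library in Saccharomyces cerevisiae BJ5465 and were sorted by FACS into low and high (top ~1%) gates on anti-HA and streptavidin fluorescence. Polyreactivity is labelled according to the gate of origin.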
For “QVQLVESGGGLVQAGGSLRLSCAASGRIFIRNAMGWYRQAPGKERELVAAITSDGGSTDYADSVKGRFTISRDNAKNTVYLQMNSLIPEDTAVYYCAATGSGYDYWGQGTQVTVSS”, the “polyreactivity (PSR sort gate)” value is recorded as “low polyreactivity”. To “QVQLVESGGGLVQAGGSLRLSCAASGRIFIRYAMGSYRQAPGKERELVAAITYSGGRTYYADSVKGRFTISRDNAKNTVYLQMNSLKPEDTAVYYCAADAPYGEDYWGQGTQVTVSS” belongs “high polyreactivity”; to “QVQLVESGGGLVQAGGSLRLSCAASGRIFITNTMGWSRPAPGKERELVAAISRTGGSTYYADSVKGRFTISRDNAKNTVYLQMNSLKPEDTAVYYCAKRYYGSPQLRYYYWGQGTQVTVSS”, “high polyreactivity”; to “QVQLVESGGGLVQAGGSLRLSCAASGRIFIVNAMGWYRQAPGKERELVAAIRTGGSNTYYADSVKGRFTISRDNAKNTVSLQMTSLKPEDTAVYYCNARSTRRINYWGQGTQVTVSS”, “high polyreactivity”. With “QVQLVESGGGLVQAGGSLRLSCAASGRIFIYNAMGWYRQAPGKERELVAAISVSGGRTYYADSVKGRFTISRDNAKNTVYLQMNSLKPEDTAVYYCNKVRVGSLRGYWGQGTQVTVSS”, the “polyreactivity (PSR sort gate)” value is “high polyreactivity”. The same measure for “QVQLVESGGGLVQAGGSLRLSCAASGRIFIYNAMGWYRQAPGKETELVAAISSGGDTYYADSVKGRFTISRDNAKNTVYLQMNSLKPEDTAVYYCAARVYRYRGYDSWGQGTQVTVSS”: “high polyreactivity”; for “QVQLVESGGGLVQAGGSLRLSCAASGRIFKGNGMGWYRQAPGKERELVAAISSGGTYYADSVKGRFTISRDNAKNTVYLQMNSLKPEDTAVYYCAAQHRGVQVTFGEYDYWGQGTQVTVSS”: “low polyreactivity”; for “QVQLVESGGGLVQAGGSLRLSCAASGRIFKGYAMGWYRQAPGKERELVAAITISGGSTYYADSVKGRFTISRDNAKNTVYLQMNSLKPEDTAVYYCAARKFVYWYGMEYWGQGSQVTVSS”: “low polyreactivity”. The same measure for “QVQLVESGGGLVQAGGSLRLSCAASGRIFKNYAMGWYRQAPGKERELVAAISWSGGRTYYADSVKGRFTISRDYAKNTVYLQMNSLKPEDTAVYYCASAARRGPTSIEPFGYGSWGQGTQVTVSS”: “high polyreactivity”; for “QVQLVESGGGLVQAGGSLRLSCAASGRIFKPYALGWYRPAPGKERELVAALSWTGGRTRYADSVKGRFTISRDNAMNTVYLQMNSLKPEDTAVYYCAAYAIVRSYFIYDYWGQGTQVTVSS”: “high polyreactivity”. To “QVQLVESGGGLVQAGGSLRLSCAASGRIFKRNAMGWYRQAPGKERELVAAISYSGGSTYYADSVKGRFTISRDNAKNTVYLQMNSLKPEDTAVYYCAAKYRPRGKSSWPYRRYDYWGQGTQVTVSS” belongs “high polyreactivity”. For “QVQLVESGGGLVQAGGSLRLSCAASGRIFKRNTLGWYRQAPGKERELVAAITNSGITYYADSVKGRFTISRDNAKNTVYLQMNSLKPEDTAVYYCAARVIYYYGSGPYDYWGQGTQVTVSS”, the “polyreactivity (PSR sort gate)” value was “low polyreactivity”.

As for “QVQLVESGGGLVQAGGSLRLSCAASGRIFKRNVMGWYRQAPGKERELVAAITLRGGSTYYADSVKGRFTISRDNAKNTVYLQMNSLKPEDTAVYYCAAVQGTYYWDDYWGQGTQVTVSS”, the “polyreactivity (PSR sort gate)” value is “low polyreactivity”. The same measure for “QVQLVESGGGLVQAGGSLRLSCAASGRIFKRYVMGWYRQAPGKERELVAAISVRGASTYYADSVKGRFTISRDNAKNTVSLQMNSLKPEDTAVYYCATAGYRLLDYWGQGTQVTVSS”: “high polyreactivity”; for “QVQLVESGGGLVQAGGSLRLSCAASGRIFKSNAMGWYRQAPGKERELVASISRSGSTNYADSVKGRFTLSRDNAKNTVYLQMNSLKPEDTAVYYCAKDPDAKGGGYDYWGQGTQVTVSS”: “low polyreactivity”; for “QVQLVESGGGLVQAGGSLRLSCAASGRIFKSYAMGWYRQAPGKERELVAIIRSSGTTYYADSVKGRFTISRDNAKNTVYLQMNSLKPEDTAVYYCNADGYPLGDKYDYWGQGTQVTVSS”: “high polyreactivity”. The same measure for “QVQLVESGGGLVQAGGSLRLSCAASGRIFKSYAMGWYRQAPGKERELVATISISGGSTYYADSVKGRFTISRDNAKNTVYLQMNSLKPEDTAVYYCAADRYGLGDYDYWGQGTQVTVSS”: “low polyreactivity”; for “QVQLVESGGGLVQAGGSLRLSCAASGRIFKSYVMGWYRQAPGKERELVAAISITGGSTYYADSVKGRFTISRDNAKNTVYLQMNSLKPEDTAVYYCAAGRSGQEDDYWGQGTQVTVSS”: “high polyreactivity”; for “QVQLVESGGGLVQAGGSLRLSCAASGRIFKTNAMGWYRQAPGKERELVAAITWSGTSTYYADSVKWRYTISRDNEKITVYLQMNSLKPEDTAVYYCDAKQYARKYGFWGQGTQVTVSS”: “high polyreactivity”. With “QVQLVESGGGLVQAGGSLRLSCAASGRIFKVNTMGWYRQAPGKERELVASIRGGGSTNYADSVKGRFTISRDNAKNTVFLQMNSLKPEDTAVYYCAVGPNSVGNRSYGFDYWGQGTQVTVSS”, the “polyreactivity (PSR sort gate)” value was “low polyreactivity”. The same measure for “QVQLVESGGGLVQAGGSLRLSCAASGRIFKVNTMGWYRQAPGKERELVASIRGGGSTNYADSVKGRFTISRDNAKNTVYLQMNSLKPEDTAVYYCAAGTSKPTPIYGYWGQGTQVTVSS”: “low polyreactivity”.

With “QVQLVESGGGLVQAGGSLRLSCAASGRIFKVYAMGWYRQAPGKERELVAAINWSTGSTYYADSVKGRFTISRDNAKNTVYLQMNSLKPEDTAVYYCAAKNLYSYDWGQGTQVTVSS”, the “polyreactivity (PSR sort gate)” value is “high polyreactivity”. The same measure for “QVQLVESGGGLVQAGGSLRLSCAASGRIFKVYAMGWYRQAPGKERELVASIRWNTGSTYYADSVKGRFTISRDNAKNSVYLQMNSLKPEDTAVYYCAATDWWGYYYWGQGTQVTVSS”: “high polyreactivity”; for “QVQLVESGGGLVQAGGSLRLSCAASGRIFKWYAMGWSRQAPGKERELVAAITSGGSTYYADSVKGRFTISRDNAKNTVYVQMNSLKPEDTAVYYCNRYGVHRRDDYWGQGTQVTVSS”: “high polyreactivity”; for “QVQLVESGGGLVQAGGSLRLSCAASGRIFKWYAMGWYRQAPGKEREFVAAINWNGDSTHYADSVKGRFTISRDNAKNTVYLQMNSLKPEDTAVYYCNARVFVTRSYYWGQGTQVTVSS”: “low polyreactivity”. The same measure for “QVQLVESGGGLVQAGGSLRLSCAASGRIFKYNAMGWYRPAPGKERELVAAISGTGGSTYYADSVKGRFTISRDNAKNTVYLQMNSLKPEDTAVYYCNRRYYGHSTWKYDYWGQGTQVTVSS”: “high polyreactivity”.

For “QVQLVESGGGLVQAGGSLRLSCAASGRIFKYYAMGWYRQAPGKERELVAAISARGGSTYYADSVKGRFTISRDNAKNTVYFQMNSLKPEDTAVYYCAAPYLTTQYERMYYWGQGTQVTVSS”, the “polyreactivity (PSR sort gate)” value was “high polyreactivity”. To “QVQLVESGGGLVQAGGSLRLSCAASGRIFKYYAMGWYRQAPGKERELVAAISASGGSTYYADSVKGRFTISRDNAKNTVYLQMNSLKPEDTAVYYCAAATRRKRIWTATTRSEYWGQGTQVTVSS” belongs “high polyreactivity”. To “QVQLVESGGGLVQAGGSLRLSCAASGRIFKYYTMGWYRQAPGKERELVAAISRDDSTNYADSVKGRFTISRDNAKNTVYLQMNSLKPEDTAVYYCAKGYHQYAGFYYWGQGTQVTVSS” belongs “high polyreactivity”. The same measure for “QVQLVESGGGLVQAGGSLRLSCAASGRIFKYYVMGWYRQPPGKERELVAGISSSGGSTYYADSVKGRFTISRDNAKNTVYLQMNSLKPEDTAVYYCAADYTFAYYNVKMDYWGQGTQVTVSS”: “low polyreactivity”; for “QVQLVESGGGLVQAGGSLRLSCAASGRIFLFYAMGWYRQAPGKESELVAAISVRGGSTYYADSVKGRFTISRDNAKNTVYLQMNSLKPEDTAVYYCAADYPKTYTSKFNYWGQVTQVTVSS”: “high polyreactivity”. For “QVQLVESGGGLVQAGGSLRLSCAASGRIFLGYAMGWYRQAPGKERELVARITLIGGGTNYADSVKGRFTISRDNAKNTVYLQMNSLKPEDTAVYYCAAKSPLRPWWVGAVSGNYWGQGTQVTVSS”, the “polyreactivity (PSR sort gate)” value was “low polyreactivity”.

On to “QVQLVESGGGLVQAGGSLRLSCAASGRIFLGYAMGWYRQAPGKERELVATITWNSDGTYYADSVKGRFTISRDNAKNTVYLQMNSLKPEDTAVYYCATDEGWPWYYYWGQGTQVTVSS”, for which the “polyreactivity (PSR sort gate)” value was “low polyreactivity”. As to “QVQLVESGGGLVQAGGSLRLSCAASGRIFLHYAMGWYRQAPGKERELVAGITKSGSSTYYADSVKGRFTISRDNAKNTVYLQMNSLKPEDTAVYYCAARKIHHHVYGAWPRYGYWGQGTQVTVSS”, the “polyreactivity (PSR sort gate)” value is on record as “high polyreactivity”. The same measure for “QVQLVESGGGLVQAGGSLRLSCAASGRIFLLYLMGWYRQAPGKERELVADITFSGGSTYYADSVKGRFTISRDNEKHTVYLQMNSLKPEDTAVYYCAARLFAAKYRYGYWGQGTQVTVSS”: “high polyreactivity”; for “QVQLVESGGGLVQAGGSLRLSCAASGRIFLPYAMGWYRQAPGKERELVAGISSGGSTKYADSVKGRFTISRDNAKNTVYLQMNSLKPEDTAVYYCNRRFPIYGSRFGYYYWGQGTQVTVSS”: “high polyreactivity”; for “QVQLVESGGGLVQAGGSLRLSCAASGRIFLPYAMGWYRQAPGKERELVAVITGRGGSTYYADAVKGRFTISRDNAKNTVYLQMNSLQPEDTAVYYCAAAYYRGRGYYWGQGTQVSVSS”: “high polyreactivity”. The same measure for “QVQLVESGGGLVQAGGSLRLSCAASGRIFLRNAMGWYRQAPGKERELVATITSRGGSTYYADSVKGRFTISRDNAKTTVYLQMNSLKPEDTAVYYCAADPRRYRGFGYVYGGFYYWGQGTQVTVSS”: “low polyreactivity”.

“QVQLVESGGGLVQAGGSLRLSCAASGRIFLRNDMVWYRQAPGKERELVAGISSDGSTYYADSVKGRFTISRDNAKNTVYLQMNSVKREDTAVYDCAAERWGKPTVFQFWRPYDYWGLGTQVTVSS”: the “polyreactivity (PSR sort gate)” value is listed as “low polyreactivity”. To “QVQLVESGGGLVQAGGSLRLSCAASGRIFLRYAMGGYRAAPGKERELVAAISTRGSSTYYADSVKGRFTNSRDNAKNTVYLQMNSLKPEDTAVYYCNKAWGPRRGVNVAFDYWGQGTQVTVSS” belongs “low polyreactivity”; to “QVQLVESGGGLVQAGGSLRLSCAASGRIFLVNAKGWYRQAPGKERELVAAITYSGRSTYYAYSVKGRFTISRDNAKNTVYLQMNSLKPEDTSLYYCAALHHTQHDYWGQGTQVTVSS”, “low polyreactivity”.
